The nature of this series: amyloid nucleation score (Sup35N fusion, yeast selection) (log enrichment); library NNK1; higher = more nucleation; inactive = no reads after selection. The essentials: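 Libraries of peptides of 20 random codons fused to Sup35N were expressed in psi-negative yeast and induced 24 hours with 100 μM copper sulfate. Selection was 7 days at 30°C on medium lacking adenine and uracil, and plasmid inserts were Illumina-sequenced before and after selection. Nucleation score is the DiMSum log enrichment of output over input reads, centred on the mode score of non-aggregating sequences, and sequences with under 100 input reads were left out.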

± gives the uncertainty stated by the source.

In turn, THCVSLLGIYFFSSWVMIVR registered an amyloid nucleation score of -0.266 ± 0.4. As for SLQISCQWYAVWGHMLLSDF, the amyloid nucleation score entry was “inactive”. The substance SGGWTSLDGDMSCSSVTYLV displayed an amyloid nucleation score of -0.703 ± 0.84. Regarding VRRCFFVYSVR, the amyloid nucleation score is -0.979 ± 1.2.

For the substance LRNVSFSDFVYWSGFFRGVV, the amyloid nucleation score entry is “inactive”. Substance SYPKGGLPCGWIRTPPWRFH yielded an amyloid nucleation score of 0.42 ± 0.59. YNYDPRFVY had an amyloid nucleation score of -0.246 ± 0.28. FQGVGDIGSVLHAMFLCYGS yielded an amyloid nucleation score of 2.94 ± 0.15. Substance LLGRYNLLYIGMFRATRGGC had an amyloid nucleation score of -0.094 ± 1.5. KPERICLWLVVKRYSMVHLW showed an amyloid nucleation score of 0.253 ± 0.51. Regarding ISAMSVW, the amyloid nucleation score was -0.031 ± 0.74. For the substance KGHSANVYTAPLLCNNCHFF, the amyloid nucleation score is 6.703 ± 0.059.

In the case of RNCFMGRTVNSVSNYVESSW, the amyloid nucleation score entry was “inactive”. On to YVTVEIMGYVTKVVTITLW, for which the amyloid nucleation score was -0.419 ± 0.44.

In turn, FVYFTGIMIC gave an amyloid nucleation score of -0.46 ± 1. With TFYRLSISVVSLNMVIHPGP the figure was 1.5 ± 0.2; with LDASRNFVLLFS, 0.784 ± 0.34; with AYLNREFGFLFTLNFGCGFF, -0.636 ± 0.39. Consider LLLGDC, for which the amyloid nucleation score is -1.43 ± 2.4. With FHPKFWCNRFS the figure was -0.442 ± 0.72. Turning to YMTQIMHKARRFNAWPAVMM, the amyloid nucleation score amounted to 0.087 ± 0.3. As for RQFRIGNYENFATREWALGL, the amyloid nucleation score turned out to be 1.7 ± 0.14.

As to LLVSLSNCFLIWSSAGSMGG, the amyloid nucleation score amounted to 1.81 ± 0.23. In the case of IIGQYMQFAYFSVDRTL, the amyloid nucleation score was 0.871 ± 0.38. The substance ENIPARRLKCPFNTP returned an amyloid nucleation score of -0.511 ± 1.2.

In turn, AVLNQYRELKQAGSFYVSTM displayed an amyloid nucleation score of 0.618 ± 0.52. SAILVLFEVHFMAPLLCHYL showed an amyloid nucleation score of 0.208 ± 0.42. With QEDRGPLLHFRLNSYNVMTQ the figure was 0.471 ± 0.62; with YLFKSISCNSGRTRNQPKGQ, -0.195 ± 1.4; with HSHRVIS, 0.828 ± 0.51. The result for YSSVDDGGDQHRGLSKAGHN reads -0.525 ± 0.64; that for PFVLYWGKLSYYDAD, 0.707 ± 0.55; that for RTCHDWVIEGSMRILTARIM, -1.29 ± 1.8. Take CSAVS: the amyloid nucleation score was 0.241 ± 0.39. The result for VLFGWGCGNTFSRPSNRGQR reads 0.97 ± 0.37.

The substance STNLMKMWLFHLRDTAR registered an amyloid nucleation score of 0.583 ± 0.37.

In turn, SDMYIL returned an amyloid nucleation score of 0.807 ± 0.43. The substance TRTPAWGWFPQST came in with an amyloid nucleation score of -0.105 ± 0.81. PYSSDAKMCHLLETASNLLV came in with an amyloid nucleation score of 0.577 ± 0.56.

As to YWTALTFSHY, the amyloid nucleation score turned out to be 0.486 ± 0.82.

For ICGYWSLKVVCRMCHPYGNG, the amyloid nucleation score was -1.17 ± 0.85. Substance VGIPRYGYEPVVHALVKPFE gave an amyloid nucleation score of 0.959 ± 0.79. SMRCKSYGCC registered an amyloid nucleation score of 0.3 ± 0.59. As to ARMFELRPLNRTHYSRAKRT, the amyloid nucleation score was 0.124 ± 0.5. As to IISPYHLLLIKYRSSCSLLH, the amyloid nucleation score was found to be 0.985 ± 0.33.

In the case of TLRMGESCFKWWYQIFIQLF, the amyloid nucleation score was found to be 0.275 ± 0.93. FFGMLDPSTER came in with an amyloid nucleation score of -0.73 ± 0.36. As for VMCVTIMSVFWNGLRNVEAM, the amyloid nucleation score came out at 0.977 ± 0.18.

Take PGYQTSWWYMLKCKTSSLNY: the amyloid nucleation score is 0.468 ± 0.47. As to LEVVHRVLCTFCLFDSLMVY, the amyloid nucleation score was 1.78 ± 0.26. With TQMNR the figure was -0.89 ± 0.51. With AILRSAM the figure was 0.284 ± 0.46; with CVGRQLAGKAYLVLRWRECD, -0.372 ± 1.4. With WICQTGRFNELTHRCCVWFF the figure was 0.762 ± 0.47; with QINLSGVSVDEWLSLWYGVL, 0.468 ± 0.72. Take SPKSPPL: the amyloid nucleation score is -0.053 ± 0.62. In turn, AMKVFYDMWKTACY displayed an amyloid nucleation score of -0.507 ± 0.7. NRIISLCSLSCDYLNLDWCI displayed an amyloid nucleation score of 7.13 ± 0.08. Take ITVSKKATWCRQRGMRGLRG: the amyloid nucleation score was 1.65 ± 0.59. NGYYRLSWIKWVQKDGRVRR had an amyloid nucleation score of 0.598 ± 1.

Turning to TYNRGMGGRISVFCLFTGVM, the amyloid nucleation score is 0.078 ± 0.21.

For the substance CMWPFTDYTIIKTSLYTWTN, the amyloid nucleation score is -1.09 ± 0.53. Substance IDWQLTSLDQGSCFLA came in with an amyloid nucleation score of -0.468 ± 0.88. The substance QNMLDWLKLGLYYHNFQAWV yielded an amyloid nucleation score of -0.94 ± 2.7. The substance KVRMLNMVYKNLSDRD came in with an amyloid nucleation score of 0.884 ± 0.56.

The substance SYMKQINTGKVFRAHYVLLA showed an amyloid nucleation score of 0.117 ± 1.1. The result for DKGVFAMDKRITMVEFLS reads -0.87 ± 1.3; that for SNEYLCYYMSTNA, -0.345 ± 0.39; that for CFFPVSPFFIIRGKIQIFYL, -2.51 ± 2.7.

As to SLFEFWSDNFNQEQ, the amyloid nucleation score is 1.49 ± 0.76. The substance SSFSVVFDSHVSS showed an amyloid nucleation score of 0.382 ± 1.4.

Turning to YELAMECYVSWVLLYVA, the amyloid nucleation score is 0.362 ± 0.32. The result for MSPWASNHLW reads “inactive”; that for DFCVQNFMMLKFKLCYRRSL, -0.134 ± 1.2.

Turning to SGLFMWYGSQTPYNIMMKQK, the amyloid nucleation score result is “inactive”. Regarding PLVFCIITGPCV, the amyloid nucleation score was -0.468 ± 0.55. GITIITFIDGSLLGRDFPCW came in with an amyloid nucleation score of 2.14 ± 0.26.

For RFLAWTSLPQGAAKVIMKC, the amyloid nucleation score turned out to be 0.126 ± 0.53. For GPDNVCCGSRPKISDVGYGM, the amyloid nucleation score entry is “inactive”. The substance ASSGPAIYFNGRQRTFYYSD came in with an amyloid nucleation score of 1.05 ± 0.29.

The substance CRAGY showed an amyloid nucleation score of -0.534 ± 0.64. Turning to FWPNRLR, the amyloid nucleation score worked out at 0.169 ± 0.56. Consider YYVLFNAFQLIPLGWGNYS, for which the amyloid nucleation score entry is “inactive”. In the case of WLSSKGRQSMSYCAYTMRTP, the amyloid nucleation score is -0.247 ± 0.34. On to KSDLLNMRWVGYWFIVSSMR, for which the amyloid nucleation score is 0.099 ± 0.67. For VKSSFNMSARVVLDENIHER, the amyloid nucleation score was -0.067 ± 0.69. ICSVRSELNSSTRC came in with an amyloid nucleation score of 0.803 ± 0.48. For SLNVNLMSRVYSSAREGGVS, the amyloid nucleation score worked out at 1.73 ± 0.2.

In turn, CIFTRKGIEVVCWLEGRMVP displayed an amyloid nucleation score of 0.411 ± 1.2. With SYGSKFWEFLHFGESV the figure was -0.179 ± 0.66; with ARMVVCHPAGFGGAWPSRWC, -0.105 ± 0.93. In the case of TLNSPECDPNLSLML, the amyloid nucleation score was -0.555 ± 1.1.

In turn, LALKYPSLISPKRWT gave an amyloid nucleation score of 0.688 ± 0.36. In turn, FQGRLVFVDCDIRLVALKGS displayed an amyloid nucleation score of 3.88 ± 0.067. Take MAVERLGSQVERDIRGWWRV: the amyloid nucleation score turned out to be 0.063 ± 0.59. Turning to FNYNLCMFMHSVELFLIKIE, the amyloid nucleation score was determined as 8.162 ± 0.075. As for IRHIRPFFNVKDI, the amyloid nucleation score is -0.006 ± 0.37. Substance YCNLIRFKFCVNSCCMSSSL had an amyloid nucleation score of 5.64 ± 0.078. Consider ILLGYGQSMSRHIPTDKNEL, for which the amyloid nucleation score is -0.79 ± 0.74. Take VFFGLTICFFVAHHCQERGS: the amyloid nucleation score is 2.54 ± 0.21. As to FRKKCGVNEIYLWGDSG, the amyloid nucleation score entry is “inactive”. With MCTLDLD, the amyloid nucleation score came to 0.824 ± 0.54. For ICEVSLCYR, the amyloid nucleation score came to 0.2 ± 1. The substance SVASRACW showed an amyloid nucleation score of 0.139 ± 0.8. As to DAPVTSSGSML, the amyloid nucleation score amounted to 0.008 ± 0.23. With YYWCAHPSCYPSVY the figure was 0.878 ± 0.58. The substance CLVVTETANI yielded an amyloid nucleation score of -0.578 ± 0.69. Substance IVWFCINDTASVVLKTLLSH gave an amyloid nucleation score of 1.36 ± 0.78.

As to MRGFHSQRHSIAECVAIQKG, the amyloid nucleation score was determined as 0.359 ± 0.37. On to IWCSVNEWQYRVKVV, for which the amyloid nucleation score was determined as 0.03 ± 0.5. On to PKSIGAFLTCHISRHVYYVI, for which the amyloid nucleation score is 1.08 ± 0.66. Consider YLLRVCAAMMFSKLCNG, for which the amyloid nucleation score amounted to 6.028 ± 0.049. In turn, MKAGFHYYLVMLVRKE displayed an amyloid nucleation score of 0.265 ± 0.31. In the case of LFVRFKTYVLP, the amyloid nucleation score is 0.663 ± 0.3. Turning to PIHGISFFDAYNL, the amyloid nucleation score was -0.128 ± 1.4. In turn, RLYTFVLPRFILLEKRHSTN gave an amyloid nucleation score of 0.255 ± 0.32.

Turning to VIVFCCSEDNRRGQLKV, the amyloid nucleation score is -1.49 ± 0.84.

As for GGTSRLQDVDAALTGTWVSP, the amyloid nucleation score came to 0.042 ± 0.37. AMMPLVLNQVVFDVAALTNR: the amyloid nucleation score is 7.68 ± 0.054. The result for CRRIHFLVTMVTGSPLCLSG reads -0.627 ± 0.32; that for NIFWST, 0.361 ± 0.78. In turn, YWDYNNFRFFLRKLSFISRL registered an amyloid nucleation score of 0.822 ± 1. As for YTMFLPFRLR, the amyloid nucleation score turned out to be 0.376 ± 0.8. In the case of MALLRLDIITFRNESCSEPN, the amyloid nucleation score was -0.046 ± 0.26.

In turn, LCEFSPLSCGCYGRDPHVPP had an amyloid nucleation score of -0.73 ± 1.2. In the case of DWLFVGGGR, the amyloid nucleation score is 0.131 ± 0.56. SFCMMLVSLVFSSKKISHHA returned an amyloid nucleation score of 0.877 ± 0.49. For the substance RYGAESELTPRSASHGYWKF, the amyloid nucleation score was -0.313 ± 1.1. The result for TRALSFN reads -0.873 ± 1.6. Consider YSSRIVRVSVRRVIHQSLRS, for which the amyloid nucleation score was 1.41 ± 0.52.

FFLMISKLAKWKGVARKTAL returned an amyloid nucleation score of -0.937 ± 2.1.

With RYDSRFALPLDLS, the amyloid nucleation score is -0.245 ± 0.45.

WLGSYIVFLIRMETYDWWIV registered an amyloid nucleation score of -0.114 ± 0.38. In turn, YNKVDM showed an amyloid nucleation score of -0.316 ± 0.53. On to GLVHMPGHLRVLRQLLSA, for which the amyloid nucleation score was determined as 0.377 ± 0.56.

As for MTAIFSRSSQNFFVGW, the amyloid nucleation score worked out at 7.154 ± 0.066.

The substance YPNHGLLRQ gave an amyloid nucleation score of 0.166 ± 0.43. With LLDGYSLDNIGLEVGNASSN the figure was 0.53 ± 0.41.

The substance FECCAVLLYMGRVNACRVCC registered an amyloid nucleation score of -0.281 ± 0.44. EVMPPLKLPRHFEEIRAEAG registered an amyloid nucleation score of -0.184 ± 0.51. LMAHSGSAP displayed an amyloid nucleation score of 3.3 ± 0.19.

For the origin of these results see the supplement of paper PMC12042874.
